Biological target: HLA-A*02:01 (Homo sapiens, UniProt P04439, D140Y/D185E/D98H/E176V/E277Q/G131W/G231S/I119V/I121R/I166T/I218V/L300P/L318F/N151K/N90K/P208A/P217A/Q86G/Q94H/R138H/R169H/T345S)
Test: MHC binding assay: UV-ligand exchange with beta2m ELISA (exchange yield)
Settings: binding to HLA-A*02:01, β2m ELISA
Summary of the method: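 Peptide–HLA-A*02:01 complexes formed by UV-induced exchange of a photocleavable ligand for the test peptide. Exchange products diluted 100-fold and captured on streptavidin-coated plates. Stabilized complexes detected with HRP anti-β2m (1 h, 37° C.) and TMB, A450; exchange yield reported.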

Peptide exchange (MHC class I binding score, peptide exchange yield) | Substance
“+++” (≥50 = +++) | 593 (GLPRFGIEMV; listed as Homo sapiens) [compound 593]
“+++” (≥50 = +++) | 594 (IMLKGDNITL; listed as Homo sapiens) [compound 594]
“+++” (≥50 = +++) | 595 (VLLSIYPRV; listed as Homo sapiens) [compound 595]
“+++” (≥50 = +++) | 596 (ALLDQTKTLAESAL; listed as Homo sapiens) [compound 596]
“+++” (≥50 = +++) | 597 (KLLEGQVIQL; listed as Homo sapiens) [compound 597]
“+++” (≥50 = +++) | 598 (FLFPHSVLV; listed as Homo sapiens) [compound 598]
“+++” (≥50 = +++) | 599 (YLLNDASLISV; listed as Homo sapiens) [compound 599]
“+++” (≥50 = +++) | 600 (ALAAPDIVPAL; listed as Homo sapiens) [compound 600]
“+++” (≥50 = +++) | 601 (SAFPFPVTV; listed as Homo sapiens) [compound 601]
“++++” (≥75% = ++++) | 602 (YLLEQIKLIEV; listed as Homo sapiens) [compound 602]
“+++” (≥50 = +++) | 604 (SILDRDDIFV; listed as Homo sapiens) [compound 604]
“+++” (≥50 = +++) | 605 (KLYEAVPQL; listed as Homo sapiens) [compound 605]
“+++” (≥50 = +++) | 606 (ALWETEVYI; listed as Homo sapiens) [compound 606]
“+++” (≥50 = +++) | 607 (RLYSGISGLEL; listed as Homo sapiens) [compound 607]
“+++” (≥50 = +++) | 608 (SLLSVSHAL; listed as Homo sapiens) [compound 608]
“+++” (≥50 = +++) | 609 (ALWKQLLEL; listed as Homo sapiens) [compound 609]

Peptide exchange (MHC class I binding score, peptide exchange yield) | Substance
“+++” (≥50 = +++) | 610 (LLAPTPYIIGV; listed as Homo sapiens) [compound 610]
“++++” (≥75% = ++++) | 611 (YLLDDGTLVV; listed as Homo sapiens) [compound 611]
“+++” (≥50 = +++) | 612 (YLYNEGLSV; listed as Homo sapiens) [compound 612]
“+++” (≥50 = +++) | 613 (RLLPPGAVVAV; listed as Homo sapiens) [compound 613]
“+++” (≥50 = +++) | 614 (LLLPDQPPYHL; listed as Homo sapiens) [compound 614]
“++” (≥20% = ++) | 615 (VLPPDTDPA; listed as Homo sapiens) [compound 615]
“+++” (≥50 = +++) | 616 (VLIDEVESL; listed as Homo sapiens) [compound 616]
“+++” (≥50 = +++) | 617 (ALMYESEKVGV; listed as Homo sapiens) [compound 617]
“+++” (≥50 = +++) | 618 (VLFDSESIGIYV; listed as Homo sapiens) [compound 618]
“+++” (≥50 = +++) | 619 (ALQDRVPLA; listed as Homo sapiens) [compound 619]
“++++” (≥75% = ++++) | 620 (KLLNKIYEA; listed as Homo sapiens) [compound 620]
“++++” (≥75% = ++++) | 621 (VLMDRLPSLL; listed as Homo sapiens) [compound 621]
“+++” (≥50 = +++) | 622 (RLLGEEVVRVLQA; listed as Homo sapiens) [compound 622]
“+++” (≥50 = +++) | 623 (YLVEDIQHI; listed as Homo sapiens) [compound 623]
“+++” (≥50 = +++) | 635 (SLDSTLHAV; listed as Homo sapiens) [compound 635]

More lines, now with the values behind:

Substance | Peptide exchange (MHC class I binding score, peptide exchange yield)
569 (KLVDRTWTL; listed as Homo sapiens) [compound 569] | “+++” (≥50 = +++)
570 (ALANQIPTV; listed as Homo sapiens) [compound 570] | “++” (≥20% = ++)
571 (LLLTTIPQI; listed as Homo sapiens) [compound 571] | “+++” (≥50 = +++)
572 (ALADLIEKELSV; listed as Homo sapiens) [compound 572] | “+++” (≥50 = +++)
573 (ILVANAIVGV; listed as Homo sapiens) [compound 573] | “+++” (≥50 = +++)
574 (YLLQEPPRTV; listed as Homo sapiens) [compound 574] | “++” (≥20% = ++)
575 (YLISQVEGHQV; listed as Homo sapiens) [compound 575] | “+++” (≥50 = +++)
576 (ILLNNSGQIKL; listed as Homo sapiens) [compound 576] | “++++” (≥75% = ++++)
577 (VMFEDGVLMRL; listed as Homo sapiens) [compound 577] | “+++” (≥50 = +++)
578 (FLDPGGPMMKL; listed as Homo sapiens) [compound 578] | “+++” (≥50 = +++)
579 (NLMEMVAQL; listed as Homo sapiens) [compound 579] | “++” (≥20% = ++)
580 (LLMENAERV; listed as Homo sapiens) [compound 580] | “++” (≥20% = ++)
582 (TLCDVILMV; listed as Homo sapiens) [compound 582] | “+++” (≥50 = +++)
583 (ILANDGVLLAA; listed as Homo sapiens) [compound 583] | “+++” (≥50 = +++)
584 (ALAEVAAMENV; listed as Homo sapiens) [compound 584] | “+++” (≥50 = +++)
585 (ALWDLAADKQTL; listed as Homo sapiens) [compound 585] | “++++” (≥75% = ++++)
586 (KLKPGDLVGV; listed as Homo sapiens) [compound 586] | “+++” (≥50 = +++)
587 (VMNDRLYAI; listed as Homo sapiens) [compound 587] | “+++” (≥50 = +++)
588 (SLLPLSHLV; listed as Homo sapiens) [compound 588] | “+++” (≥50 = +++)
589 (KLYPQLPAEI; listed as Homo sapiens) [compound 589] | “+++” (≥50 = +++)
590 (SLIEKLWQT; listed as Homo sapiens) [compound 590] | “++” (≥20% = ++)
591 (SMAELDIKL; listed as Homo sapiens) [compound 591] | “+++” (≥50 = +++)
592 (RLLSAAENFL; listed as Homo sapiens) [compound 592] | “+++” (≥50 = +++)
